Measured values as given in patent US20260117203A1, “MUTANT KETOREDUCTASE WITH INCREASED KETOREDUCTASE ACTIVITY AS WELL AS METHODS AND USES INVOLVING THE SAME” (Hoffmann-La Roche Inc., priority 2023, published 2026).

Columns and labels:
Assay type in all cases: biochemical, Sporidiobolus salmonicolor
[1] = substrate: C[C@@H]1CC(=O)c2ncnc(N3CCN(C(=O)OC(C)(C)C)CC3)c21; experiment: Kinetic characterization (app. KM, app. kcat), Table 9c, variant E00144; settings: other: E00144; pH 7.0
[2] = substrate: C[C@@H]1CC(=O)c2ncnc(N3CCN(C(=O)OC(C)(C)C)CC3)c21; experiment: Kinetic characterization (app. KM, app. kcat), Table 9c, variant E00158; settings: other: E00158; pH 7.0
[3] = substrate: C[C@@H]1CC(=O)c2ncnc(N3CCN(C(=O)OC(C)(C)C)CC3)c21; experiment: Kinetic characterization (app. KM, app. kcat), Table 9c, variant E00184 (first line); settings: other: E00184, first line; pH 7.0
[4] = substrate: C[C@@H]1CC(=O)c2ncnc(N3CCN(C(=O)OC(C)(C)C)CC3)c21; experiment: Kinetic characterization (app. KM, app. kcat), Table 9c, variant E00184 (second line); settings: other: E00184, second line; pH 7.0
[5] = substrate: C[C@@H]1CC(=O)c2ncnc(N3CCN(C(=O)OC(C)(C)C)CC3)c21; experiment: Kinetic characterization (app. KM, app. kcat), Table 9c, wild type; settings: other: WT; pH 7.0
[6] = substrate: C[C@@H]1CC(=O)c2ncnc(N3CCN(C(=O)OC(C)(C)C)CC3)c21; experiment: Kinetic characterization (app. KM, app. kcat), Table 9c, variant E00128; settings: other: E00128; pH 7.0

B1: Sporidiobolus salmonicolor ketoreductase variant E00144, Trp97_Met241_Trp242_Ser245_Met316_Met342, SEQ ID NO: 3, His-tag (Sporobolomyces salmonicolor; … (protein)
chain: MAKIDNAVLPEGSLVLVTGANGFVASHVVEQLLEHGYKVRGTARSASKLANLQKRWDAKYPGRFETAVVEDMLKQGAYDEVIKGAAGVAHIASVVSWSNKYDEVVTPAIGGTLNALRAAAATPSVKRFVLTSSTVSALIPKPNVEGIYLDEKSWNLESIDKAKTLPESDPQKSLWVYAASKTEAELAAWKFMDENKPHFTLNAVLPNYTIGTIFDPETQSGSTSGWMMSLFNGEVSPALAMWPPSYYVSAVDIGLLHLGCLVLPQIERRRVYGTAGTFDWNTVLATFRKLYPSKTFPADFPDQGQDLSKFDTAPSMEILKSLGRPGWRSIEESIKDLVGSEMA
Q: Which results are given for B1?
A: Km [1]: 175.2 ± 9.9 µM; kcat [1]: 0.103 ± 0.00333 s⁻¹; kcat/Km [1]: 593 M⁻¹ s⁻¹

B2: Sporidiobolus salmonicolor ketoreductase variant E00158, Trp97_Lys238_Met241_Trp242_Ser245_Met316_Met342, SEQ ID NO: 6, His-tag (Sporobolomyces salmonicolor; … (protein)
chain: MAKIDNAVLPEGSLVLVTGANGFVASHVVEQLLEHGYKVRGTARSASKLANLQKRWDAKYPGRFETAVVEDMLKQGAYDEVIKGAAGVAHIASVVSWSNKYDEVVTPAIGGTLNALRAAAATPSVKRFVLTSSTVSALIPKPNVEGIYLDEKSWNLESIDKAKTLPESDPQKSLWVYAASKTEAELAAWKFMDENKPHFTLNAVLPNYTIGTIFDPETQSGSTSGWMMSLFNGEVSPKLAMWPPSYYVSAVDIGLLHLGCLVLPQIERRRVYGTAGTFDWNTVLATFRKLYPSKTFPADFPDQGQDLSKFDTAPSMEILKSLGRPGWRSIEESIKDLVGSEMA
Q: How did the Km [2] turn out when B2 was run?
A: Its Km is 299.7 ± 7.9 µM.

Q: And the kcat [2]?
A: Its kcat is 0.255 ± 0.00667 s⁻¹.

Q: And the kcat/Km [2]?
A: The kcat/Km was 853 M⁻¹ s⁻¹.

B3: Sporidiobolus salmonicolor ketoreductase variant E00184, Trp97_Ala224_Lys238_Met241_Trp242_Ser245_Gly246_Met316_Met342, SEQ ID NO: 8, His-tag (Sporobolomyces … (protein)
chain: MAKIDNAVLPEGSLVLVTGANGFVASHVVEQLLEHGYKVRGTARSASKLANLQKRWDAKYPGRFETAVVEDMLKQGAYDEVIKGAAGVAHIASVVSWSNKYDEVVTPAIGGTLNALRAAAATPSVKRFVLTSSTVSALIPKPNVEGIYLDEKSWNLESIDKAKTLPESDPQKSLWVYAASKTEAELAAWKFMDENKPHFTLNAVLPNYTIGTIFDPETQSGSTAGWMMSLFNGEVSPKLAMWPPSGYVSAVDIGLLHLGCLVLPQIERRRVYGTAGTFDWNTVLATFRKLYPSKTFPADFPDQGQDLSKFDTAPSMEILKSLGRPGWRSIEESIKDLVGSEMA
Q: With B3 as the protein, how does the Km [3] read?
A: The Km was 471.7 ± 34.6 µM.

Q: And the kcat [3]?
A: Its kcat is 0.355 ± 0.0167 s⁻¹.

Q: And the kcat/Km [3]?
A: The kcat/Km was 753 M⁻¹ s⁻¹.

B4: Sporidiobolus salmonicolor ketoreductase variant E00184 (second line so labelled; in Table 9b W97 V134 A224 K238 M241 W242 S245 G246 M316 M342, the mutations … (protein)
chain: MAKIDNAVLPEGSLVLVTGANGFVASHVVEQLLEHGYKVRGTARSASKLANLQKRWDAKYPGRFETAVVEDMLKQGAYDEVIKGAAGVAHIASVVSWSNKYDEVVTPAIGGTLNALRAAAATPSVKRFVLTSSVVSALIPKPNVEGIYLDEKSWNLESIDKAKTLPESDPQKSLWVYAASKTEAELAAWKFMDENKPHFTLNAVLPNYTIGTIFDPETQSGSTAGWMMSLFNGEVSPKLAMWPPSGYVSAVDIGLLHLGCLVLPQIERRRVYGTAGTFDWNTVLATFRKLYPSKTFPADFPDQGQDLSKFDTAPSMEILKSLGRPGWRSIEESIKDLVGSEMA
notes: second row labelled E00184, evidently E00185
Q: B4 was tested. Which Km [4] did it give?
A: Its Km is 143.5 ± 5.5 µM.

Q: What about the kcat [4] of the same protein?
A: The kcat was 0.525 ± 0.0133 s⁻¹.

Q: What about the kcat/Km [4] of the same protein?
A: Its kcat/Km is 3660 M⁻¹ s⁻¹.

B5: Sporidiobolus salmonicolor ketoreductase, wild type (WT), UniProt Q9UUN9, SEQ ID NO: 1 (Sporobolomyces salmonicolor) (protein)
chain: MAKIDNAVLPEGSLVLVTGANGFVASHVVEQLLEHGYKVRGTARSASKLANLQKRWDAKYPGRFETAVVEDMLKQGAYDEVIKGAAGVAHIASVVSFSNKYDEVVTPAIGGTLNALRAAAATPSVKRFVLTSSTVSALIPKPNVEGIYLDEKSWNLESIDKAKTLPESDPQKSLWVYAASKTEAELAAWKFMDENKPHFTLNAVLPNYTIGTIFDPETQSGSTSGWMMSLFNGEVSPALALMPPQYYVSAVDIGLLHLGCLVLPQIERRRVYGTAGTFDWNTVLATFRKLYPSKTFPADFPDQGQDLSKFDTAPSLEILKSLGRPGWRSIEESIKDLVGSETA
Q: B5 was tested. Which Km [5] did it give?
A: Its Km is 11.9 ± 1.1 µM.

Q: What about the kcat [5] of the same protein?
A: Its kcat is 0.00817 ± 0.000333 s⁻¹.

Q: And the kcat/Km [5]?
A: The kcat/Km was 683 M⁻¹ s⁻¹.

B6: Sporidiobolus salmonicolor ketoreductase variant E00128, Trp97_Met241_Trp242_Ser245, SEQ ID NO: 2, His-tag (Sporobolomyces salmonicolor; F97W/L241M/M242W/Q245S) (protein)
chain: MAKIDNAVLPEGSLVLVTGANGFVASHVVEQLLEHGYKVRGTARSASKLANLQKRWDAKYPGRFETAVVEDMLKQGAYDEVIKGAAGVAHIASVVSWSNKYDEVVTPAIGGTLNALRAAAATPSVKRFVLTSSTVSALIPKPNVEGIYLDEKSWNLESIDKAKTLPESDPQKSLWVYAASKTEAELAAWKFMDENKPHFTLNAVLPNYTIGTIFDPETQSGSTSGWMMSLFNGEVSPALAMWPPSYYVSAVDIGLLHLGCLVLPQIERRRVYGTAGTFDWNTVLATFRKLYPSKTFPADFPDQGQDLSKFDTAPSLEILKSLGRPGWRSIEESIKDLVGSETA
Q: What does the source list for B6?
A: Km [6]: 162.8 ± 7.8 µM; kcat [6]: 0.0967 ± 0.00167 s⁻¹; kcat/Km [6]: 592 M⁻¹ s⁻¹
